Changes are numbered by the printed parent chain.
B1: Gfp-IDR_(FtsZ) (Gfp fused to the C-terminal 67 amino acids of E. coli FtsZ, residues 317-383) (domain or fragment, UniProt P0A9A6 317-383, looked up)
chain: MDKRPEITLVTNKQVQQPVMDRYQQHGMAPLTQEQKPVAKVVNDNAPQTAKEPDYLDIPAFLRKQAD
B2: Gfp-IDR_(FtsZ) mut-1 (Ala substitutions at FtsZ positions 352 through 358) (domain or fragment, E. coli, UniProt P0A9A6 317-383, looked up)
chain: B1 chain with K36A, P37A, V38A, K40A, V41A, V42A

Molecular target: ClpXP (ClpX with ClpP protease) (E. coli, UniProt P0A6H1 1-424; P0A6G7 15-207)
Sequence (P0A6H1 whole entry, chain 1 of 2): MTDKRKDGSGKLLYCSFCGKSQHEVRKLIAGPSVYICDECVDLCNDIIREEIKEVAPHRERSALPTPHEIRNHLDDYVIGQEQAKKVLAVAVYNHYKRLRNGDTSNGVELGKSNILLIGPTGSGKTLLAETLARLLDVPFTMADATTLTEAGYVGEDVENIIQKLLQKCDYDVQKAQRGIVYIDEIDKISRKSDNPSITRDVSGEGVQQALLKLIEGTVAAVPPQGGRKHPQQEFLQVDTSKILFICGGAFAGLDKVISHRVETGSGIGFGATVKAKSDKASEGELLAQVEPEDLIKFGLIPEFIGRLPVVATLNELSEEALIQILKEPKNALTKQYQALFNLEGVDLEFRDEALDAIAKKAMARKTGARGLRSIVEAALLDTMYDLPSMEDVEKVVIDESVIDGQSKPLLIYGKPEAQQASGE
Sequence (P0A6G7 15-207, chain 2 of 2): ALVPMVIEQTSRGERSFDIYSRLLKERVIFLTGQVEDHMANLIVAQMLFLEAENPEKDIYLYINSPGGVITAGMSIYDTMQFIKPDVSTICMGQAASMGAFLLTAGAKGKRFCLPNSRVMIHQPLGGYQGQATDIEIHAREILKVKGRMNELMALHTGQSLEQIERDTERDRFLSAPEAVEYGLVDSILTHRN
Experiment: ultrafiltration

Binder | binding result
B1 | binds
B2 | binds
